Assay [1] has as its target N-terminally His6-tagged Gαo E246K mutant (rat) (UniProt P59215).
Assay [2] has as its target N-terminally His6-tagged wild-type Gαo (rat) (UniProt P59215).

With RGS16 domain (domain or fragment), the figures for the kGAP (single-turnover GTPase assay, 400 nM Gα, 20 nM RGS16) in assay [1] and in assay [2] were 1.7 min⁻¹ and 1.6 min⁻¹, respectively.
